# Article PMC10786891, “Massively parallel profiling of RNA-targeting CRISPR-Cas13d”
# Substitutions are numbered along the chain they refer to. Names and notes keep the numbering of the source.
# T1: EsCas13d, nuclease-dead (Eubacterium siraeum, UniProt B0MS50, R295A;H300A;R849A;H854A)
# T1 sequence: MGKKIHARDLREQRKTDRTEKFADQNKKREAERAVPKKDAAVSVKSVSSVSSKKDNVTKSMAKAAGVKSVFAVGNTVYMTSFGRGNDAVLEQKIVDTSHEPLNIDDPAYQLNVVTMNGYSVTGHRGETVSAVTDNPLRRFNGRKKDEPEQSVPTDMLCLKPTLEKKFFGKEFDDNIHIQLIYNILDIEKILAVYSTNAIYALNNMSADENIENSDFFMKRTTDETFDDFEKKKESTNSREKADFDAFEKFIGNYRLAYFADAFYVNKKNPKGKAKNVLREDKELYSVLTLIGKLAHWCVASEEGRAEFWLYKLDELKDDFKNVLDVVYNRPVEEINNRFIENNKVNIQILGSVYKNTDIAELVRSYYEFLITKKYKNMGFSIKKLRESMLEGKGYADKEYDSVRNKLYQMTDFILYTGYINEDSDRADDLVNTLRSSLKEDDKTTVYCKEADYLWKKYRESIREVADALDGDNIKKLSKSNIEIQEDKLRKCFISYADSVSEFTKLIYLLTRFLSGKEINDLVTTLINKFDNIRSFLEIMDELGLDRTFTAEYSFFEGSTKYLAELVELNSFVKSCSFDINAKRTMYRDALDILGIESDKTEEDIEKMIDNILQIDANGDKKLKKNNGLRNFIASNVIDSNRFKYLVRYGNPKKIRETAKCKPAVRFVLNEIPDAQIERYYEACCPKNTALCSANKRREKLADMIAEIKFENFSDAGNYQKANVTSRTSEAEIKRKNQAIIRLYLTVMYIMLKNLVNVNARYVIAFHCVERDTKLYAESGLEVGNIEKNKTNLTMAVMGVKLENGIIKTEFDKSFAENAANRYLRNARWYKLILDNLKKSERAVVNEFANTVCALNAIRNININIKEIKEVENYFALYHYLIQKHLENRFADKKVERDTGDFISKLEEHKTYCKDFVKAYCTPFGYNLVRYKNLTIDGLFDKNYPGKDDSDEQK
# B1: target 3 insU 3' of 11,insU 3' of 6 (mixed)
# RNA 1: CACCCGUGCAAAAUUGCAGGGGUCUAAAACGACCUGAAUAUUUCAGAUCAAA
# RNA 2: GGGAAUGGAUCCACAUCUACGAAUUCGUUUUUGAUCUGAAAUUAUUCUAGGUCUGCAGAUCGGAAGAGCACACGU
# B2: target 3 G4A,U22A (mixed)
# RNA 1: B1 RNA 1
# RNA 2: GGGAAUGGAUCCACAUCUACGAAUUCGUUAUUGAUCUGAAAUAUUCAAGUCUGCAGAUCGGAAGAGCACACGU
# B3: target 3 del1,del22 (mixed)
# RNA 1: B1 RNA 1
# RNA 2: GGGAAUGGAUCCACAUCUACGAAUUCGUUUUGAUCUGAAAUAUUCAGGUUGCAGAUCGGAAGAGCACACGU
# B4: target 3 insU 3' of 11,insC 3' of 3 (mixed)
# RNA 1: B1 RNA 1
# RNA 2: B1 RNA 2 with U48A, A49G, G51C
# B5: target 3 insG 3' of 7,insC 3' of 2 (mixed)
# RNA 1: B1 RNA 1
# RNA 2: B1 RNA 2 with U43A, A44U, U46G, U48A, A49G, G51U, U52C
# B6: target 1 insG 3' of 19,insG 3' of 3 (mixed)
# RNA 1: CACCCGUGCAAAAAUGCAGGGGUCUAAAACUGAGCGGAUAACCUCUCUAUGG
# RNA 2: GGGAAUGGAUCCACAUCUACGAAUUCGUACCAUGAGAGAGGUUAUCCGCUGCACCGAGAUCGGAAGAGCACACGU
# B7: target 1 insU 3' of 12,insC 3' of 12 (mixed)
# RNA 1: B6 RNA 1
# RNA 2: GGGAAUGGAUCCACAUCUACGAAUUCGUACCAUAGAGAGGUCUUAUCCGCUCACCGAGAUCGGAAGAGCACACGU
# B8: target 1 insG 3' of 20,insG 3' of 3 (mixed)
# RNA 1: B6 RNA 1
# RNA 2: B6 RNA 2 with U33G, G34U
# B9: target 3 insG 3' of 9,insA 3' of 2 (mixed)
# RNA 1: B1 RNA 1
# RNA 2: B1 RNA 2 with U43A, A44G, U48A, A49G, G51U, U52A
# B10: target 3 insU 3' of 13,insU 3' of 4 (mixed)
# RNA 1: B1 RNA 1
# RNA 2: B1 RNA 2 with A40U, U42A, U48A, A49G, G50U
# B11: target 3 insA 3' of 6,insA 3' of 6 (mixed)
# RNA 1: B1 RNA 1
# RNA 2: B1 RNA 2 with U43A, A44U, U46C, C47A, U48A
# B12: target 3 G3C,A11G (mixed)
# RNA 1: B1 RNA 1
# RNA 2: B2 RNA 2 with A30U, A41G, A48G, G49C
# B13: target 3 insC 3' of 12,insU 3' of 3 (mixed)
# RNA 1: B1 RNA 1
# RNA 2: B1 RNA 2 with A41C, U42A, U48A, A49G, G51U
# B14: target 3 insU 3' of 16,insU 3' of 16 (mixed)
# RNA 1: B1 RNA 1
# RNA 2: B1 RNA 2 with G38U, A39U, A40G, U42A, U43A, A44U, U45A, C47U, U48C
# B15: target 3 C1G,U7C (mixed)
# RNA 1: B1 RNA 1
# RNA 2: B2 RNA 2 with A30U, U45C, A48G, C51G
# B16: target 3 insA 3' of 10,insC 3' of 10 (mixed)
# RNA 1: B1 RNA 1
# RNA 2: B1 RNA 2 with U43A, A44C, U45A, C47U, U48C
# B17: target 3 insU 3' of 3,insA 3' of 2 (mixed)
# RNA 1: B1 RNA 1
# RNA 2: B1 RNA 2 with U43A, A44U, U46C, C47A, U48G, A49G, G50U, G51U, U52A
# B18: target 3 del22 (mixed)
# RNA 1: B1 RNA 1
# RNA 2: GGGAAUGGAUCCACAUCUACGAAUUCGUUUUGAUCUGAAAUAUUCAGGUCUGCAGAUCGGAAGAGCACACGU
# B19: target 1 U8G,U11C (mixed)
# RNA 1: B6 RNA 1
# RNA 2: GGGAAUGGAUCCACAUCUACGAAUUCGUACCAUAGAGAGGCUAGCCGCUCACCGAGAUCGGAAGAGCACACGU
# B20: target 3 insG 3' of 7,insG 3' of 2 (mixed)
# RNA 1: B1 RNA 1
# RNA 2: B1 RNA 2 with U43A, A44U, U46G, U48A, A49G, G51U, U52G
# B21: target 3 A11G,A18G (mixed)
# RNA 1: B1 RNA 1
# RNA 2: B2 RNA 2 with A30U, A34G, A41G, A48G
# B22: target 3 insU 3' of 22,insC 3' of 19 (mixed)
# RNA 1: B1 RNA 1
# RNA 2: GGGAAUGGAUCCACAUCUACGAAUUCGUUUUUUGCAUCUGAAAUAUUCAGGUCUGCAGAUCGGAAGAGCACACGU
# B23: target 3 C6G,A9G (mixed)
# RNA 1: B1 RNA 1
# RNA 2: B2 RNA 2 with A30U, A43G, C46G, A48G
# B24: target 3 del1,del4 (mixed)
# RNA 1: B1 RNA 1
# RNA 2: GGGAAUGGAUCCACAUCUACGAAUUCGUUUUUGAUCUGAAAUAUUCAGUUGCAGAUCGGAAGAGCACACGU
# B25: target 3 U20C,U22A (mixed)
# RNA 1: B1 RNA 1
# RNA 2: B2 RNA 2 with U32C, A48G
# B26: target 3 insC 3' of 22 (mixed)
# RNA 1: B1 RNA 1
# RNA 2: GGGAAUGGAUCCACAUCUACGAAUUCGUUUCUUGAUCUGAAAUAUUCAGGUCUGCAGAUCGGAAGAGCACACGU
# B27: target 3 insU 3' of 16,insA 3' of 2 (mixed)
# RNA 1: B1 RNA 1
# RNA 2: B1 RNA 2 with G38U, A39G, U42A, U48A, A49G, G51U, U52A
# B28: target 3 insA 3' of 4,insA 3' of 2 (mixed)
# RNA 1: B1 RNA 1
# RNA 2: B1 RNA 2 with U43A, A44U, U46C, C47A, U48G, G51U, U52A
# B29: target 3 insA 3' of 10,insC 3' of 4 (mixed)
# RNA 1: B1 RNA 1
# RNA 2: B1 RNA 2 with U43A, U48A, A49G, G50C
# B30: target 1 C2G,A18C (mixed)
# RNA 1: B6 RNA 1
# RNA 2: B19 RNA 2 with A34C, C41U, G44U, C50G
# B31: target 3 insU 3' of 13,insU 3' of 5 (mixed)
# RNA 1: B1 RNA 1
# RNA 2: B1 RNA 2 with A40U, U42A, U48A, A49U
# B32: target 3 insA 3' of 8,insA 3' of 6 (mixed)
# RNA 1: B1 RNA 1
# RNA 2: B1 RNA 2 with U43A, A44U, U45A, U48A
# Target: T1, EsCas13d, nuclease-dead
# Experiment: crRNA (strand 1, pre-loaded); Mg2+; 40 mM Tris-HCl pH 7.5, 150 mM NaCl, 6 mM MgCl2, 1 mM DTT, 0.1% Tween-20, 0.2 mg/ml BSA; 25 C; 10 min per concentration, then washed
# Details: tags: His6-TwinStrep-SUMO cleaved; N-terminal SNAP kept (SNAP-Surface 488); label: 3' end held by stalled T7 RNA polymerase
row,Binder,Kd
1,B1,95 ± 14.5 nM
2,B2,5.71 ± 0.47 nM
3,B3,29 ± 6 nM
4,B4,58 ± 9.5 nM
5,B5,88 ± 17.5 nM
6,B6,41 ± 2.4 nM
7,B7,27.6 ± 2.9 nM
8,B8,31 ± 9 nM
9,B9,~102 nM
10,B10,49.5 ± 17.5 nM
11,B11,4.96 ± 0.355 nM
12,B12,61 ± 12 nM
13,B13,106 ± 34 nM
14,B14,76.5 ± 12 nM
15,B15,73.5 ± 36 nM
16,B16,100 ± 37.5 nM

row,Binder,Kd
1,B17,39 ± 5 nM
2,B18,10.3 ± 1.2 nM
3,B19,29.5 ± 3.1 nM
4,B20,32.6 ± 5.4 nM
5,B21,70 ± 25 nM
6,B22,60.5 ± 15.5 nM
7,B23,46.5 ± 5.5 nM
8,B24,18 ± 2.5 nM
9,B25,55 ± 12 nM
10,B26,21.4 ± 2.3 nM
11,B27,16.1 ± 1.9 nM
12,B28,33 ± 7 nM
13,B29,90 ± 32 nM
14,B30,44 ± 4 nM
15,B31,106 ± 45.5 nM
16,B32,58.5 ± 6.5 nM
